Results published in patent publication US20190300590A1 (PROTAGONIST THERAPEUTICS, published 2019).
Like-named read-outs stand apart in the source and are kept apart here. *1 amine or outer side, *2 acyl side, *3 side chain or, on linkers, in order; H or OH if unused. Bridges are numbered along the chain shown (N, C = ends). Primed or numbered codes have the meaning given here. [ ]: non-standard residue; d: D form. Phe(4-OMe)(3) = O-methyl-L-tyrosine (4-methoxy-L-phenylalanine), COc1ccc(C[C@H](N[*:1])C(=O)[*:2])cc1; Phe(4-OMe) = 4-methoxy-L-phenylalanine (O-methyl-L-tyrosine), COc1ccc(C[C@H](N[*:1])C(=O)[*:2])cc1; Phe(4-OMe)(4) = O-methyl-L-tyrosine, COc1ccc(C[C@H](N[*:1])C(=O)[*:2])cc1; Tyr(Ph) = N[C@@H](Cc1ccc(Oc2ccccc2)cc1)C(=O)O; 2Nal = N[C@@H](Cc1ccc2ccccc2c1)C(=O)O; AEF = NCCOc1ccc(C[C@H](N)C(=O)O)cc1; αMeL = CC(C)C[C@](C)(N)C(=O)O; Suc = O=C(CCC(=O)[*:2])[*:1]; hLeu = CC(C)CC[C@H](N)C(=O)O; αMeK = C[C@](N)(CCCCN)C(=O)O; Abu = CC[C@H](N)C(=O)O; Dap = NC[C@H](N)C(=O)O; Aib = CC(C)(N)C(=O)O

T1: IL23R_huFC (human, UniProt Q5VWK5 24-353)
T1 sequence (looked up): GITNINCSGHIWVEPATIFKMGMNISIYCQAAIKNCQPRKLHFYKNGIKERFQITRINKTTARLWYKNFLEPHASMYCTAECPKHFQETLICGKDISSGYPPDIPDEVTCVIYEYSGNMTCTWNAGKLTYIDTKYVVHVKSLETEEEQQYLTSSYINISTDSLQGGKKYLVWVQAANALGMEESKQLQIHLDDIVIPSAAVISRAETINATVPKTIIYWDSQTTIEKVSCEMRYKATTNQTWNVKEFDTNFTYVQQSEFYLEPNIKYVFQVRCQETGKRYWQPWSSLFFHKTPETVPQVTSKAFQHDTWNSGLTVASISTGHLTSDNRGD

T2: IL-23R on human cells (IL-23R-expressing DB cells; human NK cells) (human, UniProt Q5VWK5 24-629)
T2 sequence (looked up): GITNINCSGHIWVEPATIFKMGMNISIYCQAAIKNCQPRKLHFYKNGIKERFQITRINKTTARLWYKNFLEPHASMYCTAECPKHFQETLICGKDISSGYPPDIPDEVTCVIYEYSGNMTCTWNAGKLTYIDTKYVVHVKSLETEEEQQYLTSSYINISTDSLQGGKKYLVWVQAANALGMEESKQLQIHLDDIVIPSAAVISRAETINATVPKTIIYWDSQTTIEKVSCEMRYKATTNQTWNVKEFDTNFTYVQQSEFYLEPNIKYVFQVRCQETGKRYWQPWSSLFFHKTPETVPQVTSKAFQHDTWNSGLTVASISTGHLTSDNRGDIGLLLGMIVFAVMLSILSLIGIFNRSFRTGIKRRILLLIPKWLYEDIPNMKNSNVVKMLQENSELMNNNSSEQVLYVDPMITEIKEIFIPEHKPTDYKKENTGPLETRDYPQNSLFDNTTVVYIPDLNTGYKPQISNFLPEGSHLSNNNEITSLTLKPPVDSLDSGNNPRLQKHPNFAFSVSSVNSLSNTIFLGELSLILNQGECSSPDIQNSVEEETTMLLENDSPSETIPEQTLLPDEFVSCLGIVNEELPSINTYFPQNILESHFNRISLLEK

T3: Rat IL-23R_huFC (rat, UniProt F1LX96 39-369)
T3 sequence: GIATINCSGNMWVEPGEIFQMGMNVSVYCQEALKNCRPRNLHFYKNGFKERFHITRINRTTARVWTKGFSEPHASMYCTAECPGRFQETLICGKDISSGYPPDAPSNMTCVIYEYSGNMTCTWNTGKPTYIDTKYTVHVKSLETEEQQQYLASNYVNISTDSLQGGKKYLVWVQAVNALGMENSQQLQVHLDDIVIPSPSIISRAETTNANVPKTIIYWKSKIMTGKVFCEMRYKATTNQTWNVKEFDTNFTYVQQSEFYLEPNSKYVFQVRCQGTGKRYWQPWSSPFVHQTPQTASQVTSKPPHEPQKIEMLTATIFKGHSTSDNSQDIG


Tests used:
IL23R_huFC [1] = molecular target: T1, IL23R_huFC; test: human ELISA vs IL-23
Rat IL-23R_huFC [2] = molecular target: Rat IL-23R_huFC (rat); test: rat ELISA vs IL-23
[3] = molecular target: T2, IL-23R on human cells …; test: cell-based or functional assay
Rat IL-23R_huFC [4] = molecular target: Rat IL-23R_huFC (rat); test: rat ELISA vs IL-23; remark: listed apart in the source
IL23R_huFC [5] = molecular target: T1, IL23R_huFC; test: human ELISA vs IL-23; remark: listed apart in the source
Rat IL-23R_huFC [6] = molecular target: T3, Rat IL-23R_huFC; test: rat IL-23R competitive binding ELISA

Binder | pStat3 HTRF IC50 [3] | IC50 (IL23R_huFC [5]) | other results
Ac-[Abu][Dap]TWQC[AEF][AEF][αMeK]K(Ac)NG-NH2 (thioether 1-6) | – | – | IC50 (IL23R_huFC [1]): 100 to 1000 nM
Ac-[Abu]QTWQC[AEF]W[αMeK]ENG-NH2 (thioether 1-6) [Ac-Cyclo-[[Abu]-QTWQC]-[Phe[4-(2-aminoethoxy)]-W-[α-MeLys]-ENG-NH2] | – | – | IC50 (Rat IL-23R_huFC [2]): 10 to 25 nM
Ac-[Abu]QTWQC[Phe(4-OMe)][2Nal][Aib]K(Ac)NG-NH2 (thioether 1-6) [Ac-Cyclo-[[Abu]-QTWQC]-[Phe(4-OMe)]-[2-Nal]-[Aib]-[Lys(Ac)]-NG-NH2] | < 10 nM | 10 to 25 nM | IC50 (Rat IL-23R_huFC [4]): 25 to 100 nM
Ac-[Abu]QTWQC[AEF][2Nal][Aib]K(Ac)QG-NH2 (thioether 1-6) [Ac-Cyclo-[[Abu]-QTWQC]-[Phe[4-(2-aminoethoxy)]]-[2-Nal]-[Aib]-[Lys(Ac)]-QG-NH2] | < 10 nM | 10 to 25 nM | –
Ac-[Abu]QTWQC[AEF][2Nal][Aib]EK(Ac)G-NH2 (thioether 1-6) [Ac-Cyclo-[[Abu]-QTWQC]-[Phe[4-(2-aminoethoxy)]]-[2-Nal]-[Aib]-E-[Lys(Ac)]-G-NH2] | < 10 nM | 10 to 25 nM | –
XQTWQCFWXENG (as bracketed in name; thioether cyclo) [Ac-Cyclo-[[Abu]-QTWQC]-[Phe[4-(2-aminoethoxy)]]-W-[α-Me-Orn]-ENG-NH2] | < 10 nM | 10 to 25 nM | –
XQTWQXFXKKNG (Ac; Pen-Pen disulfide; Phe(4-OMe); 1-Nal; α-MeLys; Lys(Ac); NH2) [Ac-[Pen]-QTWQ-[Pen]-[Phe(4-OMe)]-[1-Nal]-[α-MeLys]-[Lys(Ac)]-NG-NH2] | – | – | IC50 (Rat IL-23R_huFC [6]): 100 to 1000 nM
Ac-[Abu]QTWQC[Phe(4-OMe)(3)][2Nal][αMeK]K(Ac)NG-NH2 (thioether 1-6) [Ac-Cyclo-[[Abu]-QTWQC]-[Phe(4-OMe)]-[2-Nal][α-MeLys]-[Lys(Ac)]-NG-NH2] | – | – | IC50 (Rat IL-23R_huFC [2]): 10 to 25 nM
Ac-[Abu]QT[2Nal]QC[Phe(4-OMe)(4)][2Nal][αMeK]K(Ac)NG-NH2 (thioether 1-6) [Ac-Cyclo-[[Abu]-QT-[2-Nal]-QC]-[Phe(4-OMe)]-[2-Nal]-[α-MeLys]-[Lys(Ac)]-NG-NH2] | – | – | IC50 (IL23R_huFC [1]): 100 to 1000 nM
XQTXQCFXKENG (as bracketed in name; thioether cyclo) | – | – | IC50 (IL23R_huFC [1]): 100 to 1000 nM
XQTWQXFXKKNG (N-terminal glutaric acid; Pen-Pen disulfide; Phe(4-OMe); 2-Nal; α-MeLys; Lys(Ac); NH2) [glutaric acid-[Pen]-QTWQ[Pen]-[Phe(4-OMe)]-[2-Nal]-[α-MeLys]-[Lys(Ac)]-NG-NH2] | – | – | IC50 (Rat IL-23R_huFC [6]): 25 to 100 nM
XRTWQXYWRKFGXK (Ac; Pen-Pen disulfide; AEA; (D)-Lys; NH2) [Ac-[Pen]-RTWQ-[Pen]-YWRKFG-[AEA]-[(D)-Lys]-NH2] | – | – | IC50 (Rat IL-23R_huFC [6]): 25 to 100 nM
Ac-[Abu]QTWQC[AEF]W[hLeu]ENG-NH2 (thioether 1-6) [Ac-Cyclo-[[Abu]-QTWQC]-[Phe[4-(2-aminoethoxy)]]-W-[hLeu]-ENG-NH2] | < 10 nM | 10 to 25 nM | –
XQTWQXFXKKNG (N-terminal 4-methylmorpholine-2,6-dione; Pen-Pen disulfide; Phe(4-OMe); 2-Nal; α-MeLys; Lys(Ac); NH2) [4-methylmorpholine-2,6-dione-[Pen]-QTWQ[Pen]-[Phe(4-OMe)]-[2-Nal]-[α-MeLys]-[Lys(Ac)]-NG-NH2] | – | – | IC50 (Rat IL-23R_huFC [6]): 25 to 100 nM
Ac-[Abu]QTWQC[AEF][2Nal][αMeK]K(Suc)NG-NH2 (thioether 1-6) [Ac-Cyclo-[[Abu]-QTWQC]-[Phe[4-(2-aminoethoxy)]]-[2-Nal]-[α-MeLys]-[Lys(succinic acid)]-NG-NH2] | – | – | IC50 (Rat IL-23R_huFC [2]): 10 to 25 nM
Ac-[Abu][Dap]TWQC[AEF][Tyr(Ph)][αMeK]K(Ac)NG-NH2 (thioether 1-6) [Ac-Cyclo-[[Abu]-[Dap]-TWQC]-[Phe[4-(2-aminoethoxy)]]-[Phe(4-Phenoxy)]-[α-MeLys]-[Lys(Ac)]-NG-NH2] | – | – | IC50 (IL23R_huFC [1]): 100 to 1000 nM
Ac-[Abu]NTWQC[Phe(4-OMe)(4)][2Nal][αMeK]K(Ac)NG-NH2 (thioether 1-6) [Ac-Cyclo-[[Abu]-NTWQC]-[Phe(4-OMe)]-[2-Nal][α-MeLys]-[Lys(Ac)]-NG-NH2] | < 10 nM | 10 to 25 nM | IC50 (Rat IL-23R_huFC [4]): 25 to 100 nM
Ac-[Abu]QTWQC[Phe(4-OMe)][2Nal][αMeK]ENG-NH2 (thioether 1-6) [Ac-Cyclo-[[Abu]-QTWQC]-[Phe(4-OMe)]-[2-Nal]-[α-MeLys]-ENG-NH2] | < 10 nM | 10 to 25 nM | IC50 (Rat IL-23R_huFC [4]): 25 to 100 nM

More lines, main results first:

pStat3 HTRF IC50 [3] | IC50 (IL23R_huFC [5]) | Binder | other results
– | 10 to 25 nM | XQTWQCFXXKNG (as bracketed in name; thioether cyclo) [Ac-Cyclo-[[Abu]-QTWQC]-[Phe[4-(2-aminoethoxy)]]-[2-Nal]-[Orn]-[Lys(Ac)]-NG-NH2] | –
< 10 nM | 10 to 25 nM | Ac-[Abu]QTWQC[AEF]W[Aib]ENG-NH2 (thioether 1-6) [Ac-Cyclo-[[Abu]-QTWQC]-[Phe[4-(2-aminoethoxy)]]-W-[Aib]-ENG-NH2] | –
< 10 nM | 10 to 25 nM | Ac-[Abu]QTWQCYW[αMeL]ENG-NH2 (thioether 1-6) [Ac-Cyclo-[[Abu]-QTWQC]-YW-[α-MeLeu]-ENG-NH2] | IC50 (Rat IL-23R_huFC [4]): 25 to 100 nM
